Results from the supplement of paper PMC10567573.

B1: ALDH8A1 (parent)
chain: WSSRSPQERSRVLNQVADLLEQSL

Variants of: B1
Assay: protein stability index of a GFP-peptide fusion (GPS, HEK-293T) (PSI 1-6); higher = more stable
Settings: c terminus: a fixed tail appended
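Further: lentivirally expressed fusions sorted by FACS into six bins by GFP to DsRed ratio, PSI derived from sequencing read proportions per bin multiplied by bin number.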

Row | Variant | protein stability index
1 | WSSRSPQERSRVLNQVADLLEQDL [S23D] | 4.17
2 | WSSRSPQERSRVLNQVADLLEQCL [S23C] | 1.96
3 | WSSRSPQERSRVLNQVADLLEQPL [S23P] | 3.15
4 | WSSRSPQERSRVLNQVADLLEQKL [S23K] | 3.53
5 | WSSRSPQERSRVLNQVADLLEQEL [S23E] | 3.39
6 | WSSRSPQERSRVLNQVADLLEQWL [S23W] | 1.94
7 | WSSRSPQEFSRVLNQVADLLEQSL [R9F] | 2.56
8 | WSSRSPQEHSRVLNQVADLLEQSL [R9H] | 2.77
9 | WSSRSPQEQSRVLNQVADLLEQSL [R9Q] | 2.24
10 | WSSRSPQECSRVLNQVADLLEQSL [R9C] | 1.39
11 | WSSRSPQENSRVLNQVADLLEQSL [R9N] | 2.86
12 | WSSRSPQEYSRVLNQVADLLEQSL [R9Y] | 2.21
13 | WSSRSPQEKSRVLNQVADLLEQSL [R9K] | 2.83
14 | WSSRSPQERSRKLNQVADLLEQSL [V12K] | 3.07
15 | WSSRSPQERSRQLNQVADLLEQSL [V12Q] | 3.45
16 | WSSRSPQERSRRLNQVADLLEQSL [V12R] | 2.71
17 | WSSRSPQERSRSLNQVADLLEQSL [V12S] | 3.78
18 | WSSRSPQERSRTLNQVADLLEQSL [V12T] | 3.47
19 | WSSRSPQERSRALNQVADLLEQSL [V12A] | 3.11
20 | WSSRSPQERSRYLNQVADLLEQSL [V12Y] | 2.74
21 | WSSRSPQERSRMLNQVADLLEQSL [V12M] | 2.31
22 | WSSRSPQERSRVLNQHADLLEQSL [V16H] | 3.55
23 | WSSRSPQERSRVLNQEADLLEQSL [V16E] | 4.6
24 | WSSRSPQERSRVLNQSADLLEQSL [V16S] | 3.99

Row | Variant | protein stability index
25 | WSSRSPQERSRVLNQQADLLEQSL [V16Q] | 4.62
26 | WSSRSPQERSRVLNQIADLLEQSL [V16I] | 2
27 | WSSRSPQERSRVLNQDADLLEQSL [V16D] | 4.34
28 | WSSRSPQERSRVLNQMADLLEQSL [V16M] | 2.7
29 | WSSRSPQERSRVLNQYADLLEQSL [V16Y] | 2.29
30 | WSSRSPQDRSRVLNQVADLLEQSL [E8D] | 2.87
31 | WSSRSPQSRSRVLNQVADLLEQSL [E8S] | 2.16
32 | WSSRSPQGRSRVLNQVADLLEQSL [E8G] | 2.17
33 | WSSRSPQYRSRVLNQVADLLEQSL [E8Y] | 2.71
34 | WSSRSPQCRSRVLNQVADLLEQSL [E8C] | 1.6
35 | WSSRSPQPRSRVLNQVADLLEQSL [E8P] | 2.51
36 | GSSRSPQERSRVLNQVADLLEQSL [W1G] | 3.44
37 | RSSRSPQERSRVLNQVADLLEQSL [W1R] | 3.52
38 | QSSRSPQERSRVLNQVADLLEQSL [W1Q] | 3.28
39 | FSSRSPQERSRVLNQVADLLEQSL [W1F] | 2.67
40 | PSSRSPQERSRVLNQVADLLEQSL [W1P] | 3.02
41 | WSSKSPQERSRVLNQVADLLEQSL [R4K] | 2.49
42 | WSSCSPQERSRVLNQVADLLEQSL [R4C] | 1.68
43 | WSSASPQERSRVLNQVADLLEQSL [R4A] | 2.18
44 | WSSMSPQERSRVLNQVADLLEQSL [R4M] | 2.22
45 | WSSYSPQERSRVLNQVADLLEQSL [R4Y] | 2.09
46 | WSSDSPQERSRVLNQVADLLEQSL [R4D] | 2.79
47 | WSSSSPQERSRVLNQVADLLEQSL [R4S] | 2.44
48 | WSSNSPQERSRVLNQVADLLEQSL [R4N] | 2.61

Row | Variant | protein stability index
49 | WSSLSPQERSRVLNQVADLLEQSL [R4L] | 2.03
50 | WSSRSPQERSRVLNQVADLLEISL [Q22I] | 2.01
51 | WSSRSPQERSRVLNQVADLLEASL [Q22A] | 2.22
52 | WSSRSPQERSRVLNQVADLLECSL [Q22C] | 1.68
53 | WSSRSPQERSRVLNQVADLLEMSL [Q22M] | 1.83
54 | WSSRSPQERSRVLNQVADLLEWSL [Q22W] | 1.95
55 | WSSRSPQERSRVLNQVADLLELSL [Q22L] | 1.65
56 | WSSRSPQERSRVLNQVADLLEESL [Q22E] | 2.88
57 | WSSRSPQERYRVLNQVADLLEQSL [S10Y] | 2.37
58 | WSSRSPQERFRVLNQVADLLEQSL [S10F] | 1.24
59 | WSSRSPQERKRVLNQVADLLEQSL [S10K] | 1.99
60 | WSSRSPQERHRVLNQVADLLEQSL [S10H] | 2.58
61 | WSSRSPQERMRVLNQVADLLEQSL [S10M] | 2.45
62 | WSSRSPQERQRVLNQVADLLEQSL [S10Q] | 2.32
63 | WSSRSPQERTRVLNQVADLLEQSL [S10T] | 1.81
64 | WSSRSPQERSRVGNQVADLLEQSL [L13G] | 3.46
65 | WSSRSPQERSRVANQVADLLEQSL [L13A] | 2.59
66 | WSSRSPQERSRVVNQVADLLEQSL [L13V] | 3.13
67 | WSSRSPQERSRVSNQVADLLEQSL [L13S] | 3.49
68 | WSSRSPQERSRVFNQVADLLEQSL [L13F] | 2.4
69 | WSSRSPQERSRVINQVADLLEQSL [L13I] | 3.06
70 | WSSRSPAERSRVLNQVADLLEQSL [Q7A] | 2.38
71 | WSSRSPPERSRVLNQVADLLEQSL [Q7P] | 2.9
72 | WSSRSPSERSRVLNQVADLLEQSL [Q7S] | 2.21

Row | Variant | protein stability index
73 | WSSRSPDERSRVLNQVADLLEQSL [Q7D] | 2.96
74 | WSSRSPIERSRVLNQVADLLEQSL [Q7I] | 2.42
75 | WSSRSPHERSRVLNQVADLLEQSL [Q7H] | 2.31
76 | WSSRSPVERSRVLNQVADLLEQSL [Q7V] | 2.53
77 | WSSRSPQERSRVLNQVAWLLEQSL [D18W] | 1.37
78 | WSSRSPQERSRVLNQVAALLEQSL [D18A] | 1.98
79 | WSSRSPQERSRVLNQVAHLLEQSL [D18H] | 2.2
80 | WSSRSPQERSRVLNQVAKLLEQSL [D18K] | 1.47
81 | WSSRSPQERSRVLNQVAGLLEQSL [D18G] | 2.76
82 | WSSRSPQERSRVLNQVAQLLEQSL [D18Q] | 1.59
83 | WSSRSPQERSRVLNQVAILLEQSL [D18I] | 1.76
84 | WSSRSPQERSRVLNQVADLKEQSL [L20K] | 4.64
85 | WSSRSPQERSRVLNQVADLNEQSL [L20N] | 4.14
86 | WSSRSPQERSRVLNQVADLIEQSL [L20I] | 2.28
87 | WSSRSPQERSRVLNQVADLMEQSL [L20M] | 3.44
88 | WSSRSPQERSRVLNQVADLDEQSL [L20D] | 4.64
89 | WSSRSPQERSRVLNQVADLPEQSL [L20P] | 4.33
90 | WSSRSPQERSRVLNQVADLQEQSL [L20Q] | 3.68
91 | WSSRSPQERSRVLNQVADLVEQSL [L20V] | 3.03
92 | WSSRSPQERSRVLNQVYDLLEQSL [A17Y] | 2.15
93 | WSSRSPQERSRVLNQVGDLLEQSL [A17G] | 3.47
94 | WSSRSPQERSRVLNQVLDLLEQSL [A17L] | 1.48
